Experimental data reported in PMC4930699 (Cancer research, 2016).

Molecular target: the molecule itself
Assay: cross-linking

B1: Flag-PKM2 K305R (enzyme)
chain: not shown
B1: binds.
